The values that follow come from patent US20260234240A1 (published 2026).

Where only a bound is given, the exact number is not on record here.

In one experiment the target is cynoIL10. Nature of the experiment: kinetic binding assay.
Experiment [1] addresses T1, IL-10 (Accession no. P22301) (UniProt P22301 19-178).
T1 chain: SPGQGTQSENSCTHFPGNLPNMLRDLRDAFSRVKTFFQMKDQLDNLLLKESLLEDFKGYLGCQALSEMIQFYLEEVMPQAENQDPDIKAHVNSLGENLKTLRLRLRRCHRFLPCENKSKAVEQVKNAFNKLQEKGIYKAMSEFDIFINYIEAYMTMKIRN
As to the kind of experiment: SPR. In general terms: SPR reads the build-up and loss of mass on a sensor chip optically.

The target in experiment [2] is T1, IL-10 (Accession no. P22301). Nature of the experiment: kinetic binding assay.
In another experiment the target is Cyno IL10. Nature of the experiment: SPR.
The target of a further experiment is hIL10R1. As to the kind of experiment: kinetic binding assay.
Another experiment concerns the target MK1966. Nature of the experiment: SPR.
The target of another experiment is MK1966 (benchmark). As to the kind of experiment: kinetic binding assay.

B1: h49G08 (antibody, V domains shown)
VH: EVQLVESGGGLVQPGGSLRLSCAASGFTFSDYYMYWVRQAPGKGLEWVSTISDGGSYTYYPDSVKGRFTISRDNAKNNLYLQMNSLRAEDTAVYYCARGYYYGLFTYWGQGTLVTVSS
VL: DIQMTQSPSSLSASVGDRVTITCRASQDVNTGLNWYQQKPGQAPKLLIYWASSRQSGVPSRFSGSGSGTDFTLTISSLQPEDFATYYCQQHYSTPYTFGQGTKLEIK
The molecule B1 registered a dissociation constant (Kd) with cynoIL10 of under 0.001 nM.

B2: 49G08_H1L2 (antibody, V domains shown)
VH: EVQLVESGGGLVQPGGSLRLSCAASGFTFSDYYMYWVRQAPGKGLEWVSTISDGGSYTYYPDSVKGRFTISRDNAKNNLYLQMNSLRAEDTAVYYCARGYYYGLFTYWGQGTLVTVSS
VL: DIQMTQSPSSLSASVGDRVTITCRASQDVNTGLNWYQQKPGQAPKLLIYWASSRQSGVPSRFSGSGSGTDFTLTISSLQPEDFATYYCQQHYSTPYTFGQGTKLEIK
Regarding B2, the Kd in experiment [1] was found to be 0.16 nM; in experiment [2], 0.0199 nM.

B3: hu49G08 (antibody, V domains shown)
VH: EVQLVESGGGLVQPGGSLRLSCAASGFTFSDYYMYWVRQAPGKGLEWVSTISDGGSYTYYPDSVKGRFTISRDNAKNNLYLQMNSLRAEDTAVYYCARGYYYGLFTYWGQGTLVTVSS
VL: DIQMTQSPSSLSASVGDRVTITCRASQDVNTGLNWYQQKPGQAPKLLIYWASSRQSGVPSRFSGSGSGTDFTLTISSLQPEDFATYYCQQHYSTPYTFGQGTKLEIK
On to B3, for which binding with Cyno IL10 was put at a Kd of 0.11 nM. This lies in the sub-nanomolar range.

B4: αIL-10R candidate (antibody, V domains shown)
VH: QVQLQESGPGLVKPSETLSLTCTVSGGSISSDYWSWIRQPAGKRLEWIGRIFTSGSTNYNPSLKSRVTMSVDTSKNQFSLKLNSLTAADTAVYYCARDDWYFDLWGRGTLVTVSS
VL: EIVMTQSPATLSVSPGERATLSCRASQSVSNNLAWYQQKPGQAPRFLIYGASTRATGMPARFSGSGSGTEFTLTISSLQSEDFAVYFCQQYNEWPWTFGQGTKVEIK
With B4, the Kd in the experiment with hIL10R1 came out at 0.117 nM.

B5: Human IL10 (ligand)
chain: SPGQGTQSENSCTHFPGNLPNMLRDLRDAFSRVKTFFQMKDQLDNLLLKESLLEDFKGYLGCQALSEMIQFYLEEVMPQAENQDPDIKAHVNSLGENLKTLRLRLRRCHRFLPCENKSKAVEQVKNAFNKLQEKGIYKAMSEFDIFINYIEAYMTMKIRN
The molecule B5 yielded a dissociation constant Kd with MK1966 of 0.14 nM. In other words, the sub-nanomolar range.

B6: hIL10 (ligand)
chain: SPGQGTQSENSCTHFPGNLPNMLRDLRDAFSRVKTFFQMKDQLDNLLLKESLLEDFKGYLGCQALSEMIQFYLEEVMPQAENQDPDIKAHVNSLGENLKTLRLRLRRCHRFLPCENKSKAVEQVKNAFNKLQEKGIYKAMSEFDIFINYIEAYMTMKIRN
In the experiment with MK1966 (benchmark), B6 yielded an equilibrium dissociation constant (Kd) of 0.0266 nM.

As a reminder, the Kd is the concentration at which binding is half-saturated. Low values mean tighter binding, high ones weaker binding.
